From publication PMC6423188, “HYNIC and DOMA conjugated radiolabeled bombesin analogs as receptor-targeted probes for scintigraphic detection of breast tumor” (EJNMMI Research, 2019)

Assays:
physchem = assay type: physicochemical; conditions: pH 7.4
Experimental: Lipophilicity of the HPLC-purified radiopeptide analogs was determined through octanol/water partition coefficients, determined at pH 7.4 by measuring the distribution of the HPLC purified radiolabeled peptides in 1-octanol and PBS. Then, 50 μL HPLC purified ^99mTc-BN1/^99mTc-BN2/^99mTc-BN3/^99mTc-BN4/^99mTc-BNS with 100 μCi of radiolabeled compound in PBS was added to a to a centrifuge tube containing 1 mL n-octanol and 1 mL PBS (0.025 M, pH 7.4). The tube was vortexed at room temperature for 2 min and they are centrifuged at 5000 rpm for 5 min to ensure complete separation of layers. Further, 100 μL of each phase was transferred into a separate pre-weighed vial and measured in the well γ-counter. The ratio of octanol layer counts to aqueous layer counts was expressed as the distribution coefficient (D, the appropriate descriptor for ionizable compounds) and logD was used for determination of lipophilicity. Counts per unit weight of the sample were calculated, and logD value as calculated as follows:
log10D = log10 [(cpm in octanol – cpm in background) / (cpm in buffer – cpm in background)]

in vitro = in vitro ADME; conditions: rat
Experimental: An aliquot (100 μL) of ^99mTc-BN1/^99mTc-BN2/^99mTc-BN3/^99mTc-BN4/^99mTc-BNS was added to 1 mL of freshly collected rat serum in centrifuge tube. The mixture was then incubated at 37 °C for 1 h; the serum protein was precipitated by adding 1 mL trichloroacetic acid (10%, V/V). The supernatant and precipitate were separated by centrifugation at 3000 rpm for 5 min. Radioactivities of both the phases were measured separately. The above experimental procedure was repeated three times. The percentage of protein binding was determined as: Plasma protein binding % = (precipitate counts (CPM) / [precipitate counts (CPM) + plasma counts (CPM)]) × 100%.

[1] = test system: MDA-MB-231 tumor-bearing mice; experiment: In vivo biodistribution; parameters: species or system mouse; conditions: mean ± SD, n = 3; for Tumor uptake: MDA-MB-231 tumor
Experimental: All animal experiments were done according to the CSIR-IICB Animal Ethics Committee’s rules and regulation. Forty-eight hours before tumor cell implantation, an immunosuppressive drug (cyclosporine-A) was given intraperitoneal (i.p) at a concentration of 30 mg/kg/day. After that, MDA-MB-231 cells (5 × 10^6) 0.2 mL were implanted subcutaneously into the left flanks of the hind leg of BALB/c mice. Thereafter, the same dose of cyclosporine was given i.p. daily up to 2 weeks. Two weeks after inoculation of the tumor cells, when tumors reached ~ 0.5 cm in mean diameter, the tumor-bearing mice were used for biodistribution and imaging studies. Animals were monitored daily and their weights were recorded. Control group of mice received only 0.9 wt% saline. After cell implantation, the growth rate of the breast tumor followed a satisfactory pattern of spheroid shape and tumors are palpable within 2 to 4 weeks. MDA-MB-231 cell implanted mice tumor models were used for biodistribution and planar imaging studies of these radiolabeled new bombesin analogs.
In tissue biodistribution studies, tumor-bearing animals were divided into four groups and well hydrated for 1 h by intraperitoneal administration of saline (0.9%, 2 mL). Three animals per groups were used for biodistribution studies. After that, the radiolabeled new bombesin analogs (^99mTc-BN) were injected intravenously in each animal of each group consequently through the tail vein [24–27]. After 5, 30, 60, and 120 min intravenous administrations of radiolabeled analogs, the animals were sacrificed; blood, heart, lung, liver, kidney, stomach, intestine, spleen, pancreas, brain, muscle, and tumor were excised, weighed, and counted for radioactivity. The organ uptake was calculated as a percentage of the injected activity per gram of wet tissue (%IA/g). In order to evaluate whether binding of bombesin analogs to MDA-MB-231 cells in vivo is specific; blocking studies with ^99mTc-labeled bombesin analogs in tumor-bearing mice were carried out. Groups of three animals were injected 0.03 nmol of ^99mTc-labeled BN analogs (2 MBq) with 25 nmol of non-radiolabeled BN peptide. After 60 min and 120 min, mice were sacrificed and the organs were collected. Each organ was weighed and counted in a gamma counter along with activity standard and percentage of injected activity per gram (%IA/g) of tissue was calculated for each type of tissues. Counts were corrected for background radiation and physical decay of the radioactivity. The uptake was expressed in the percentage of injected activity per gram of each organ (%IA/g). Data were analyzed statistically by the t test, with the level of significance set at P < 0.05.

[2] = 60 min p.i., blocked with excess non-radiolabeled BN peptide

## ^99mTc-HYNIC-Asp-[Phe^13Nle^14]BN(7-14)NH2 [99mTc-BN1]
physchem
  logD: − 1.85 ± 0.05
In vitro
  Percentage of plasma protein binding: 45.00%
[1]; 5 min p.i., i.v.
  Tumor uptake: 0.78 ± 0.03 %IA/g
  Blood uptake: 1.32 ± 0.07 %IA/g
  Heart uptake: 1.02 ± 0.05 %IA/g
  Intestine uptake: 1.06 ± 0.05 %IA/g
  Kidney uptake: 2.12 ± 0.10 %IA/g
  Liver uptake: 0.85 ± 0.04 %IA/g
  Lung uptake: 0.95 ± 0.04 %IA/g
  Muscle uptake: 0.22 ± 0.02 %IA/g
  Pancreas uptake: 2.58 ± 0.12 %IA/g
  Spleen uptake: 0.94 ± 0.04 %IA/g
  Stomach uptake: 0.42 ± 0.02 %IA/g
  Urine + urinary bladder uptake: 0.81 ± 0.04 %IA/g
[1]; 30 min p.i., i.v.
  Tumor uptake: 2.51 ± 0.12 %IA/g
  Blood uptake: 0.89 ± 0.04 %IA/g
  Heart uptake: 0.81 ± 0.04 %IA/g
  Intestine uptake: 1.36 ± 0.06 %IA/g
  Kidney uptake: 4.12 ± 0.20 %IA/g
  Liver uptake: 0.69 ± 0.03 %IA/g
  Lung uptake: 0.77 ± 0.03 %IA/g
  Muscle uptake: 0.27 ± 0.01 %IA/g
  Pancreas uptake: 1.79 ± 0.08 %IA/g
  Spleen uptake: 0.51 ± 0.02 %IA/g
  Stomach uptake: 0.85 ± 0.04 %IA/g
  Urine + urinary bladder uptake: 2.85 ± 0.01 %IA/g
[1]; [2]
  Tumor uptake: 1.20 ± 0.03 %IA/g
  Blood uptake: 0.34 ± 0.01 %IA/g
  Heart uptake: 0.44 ± 0.01 %IA/g
  Intestine uptake: 1.44 ± 0.05 %IA/g
  Kidney uptake: 3.10 ± 0.02 %IA/g
  Liver uptake: 0.55 ± 0.03 %IA/g
  Lung uptake: 0.57 ± 0.02 %IA/g
  Muscle uptake: 0.16 ± 0.02 %IA/g
  Pancreas uptake: 0.91 ± 0.04 %IA/g
  Spleen uptake: 0.35 ± 0.01 %IA/g
  Stomach uptake: 0.40 ± 0.02 %IA/g
  Urine + urinary bladder uptake: 3.56 ± 0.02 %IA/g
[1]; 60 min p.i., i.v.
  Tumor uptake: 1.85 ± 0.09 %IA/g
  Blood uptake: 0.32 ± 0.01 %IA/g
  Heart uptake: 0.47 ± 0.02 %IA/g
  Intestine uptake: 1.70 ± 0.08 %IA/g
  Kidney uptake: 3.15 ± 0.15 %IA/g
  Liver uptake: 0.56 ± 0.02 %IA/g
  Lung uptake: 0.56 ± 0.02 %IA/g
  Muscle uptake: 0.14 ± 0.01 %IA/g
  Pancreas uptake: 1.11 ± 0.05 %IA/g
  Spleen uptake: 0.32 ± 0.01 %IA/g
  Stomach uptake: 0.56 ± 0.02 %IA/g
  Urine + urinary bladder uptake: 3.50 ± 0.15 %IA/g
[1]; 120 min p.i., i.v.
  Tumor uptake: 1.56 ± 0.07 %IA/g
  Blood uptake: 0.05 ± 0.01 %IA/g
  Heart uptake: 0.17 ± 0.01 %IA/g
  Intestine uptake: 1.10 ± 0.05 %IA/g
  Kidney uptake: 1.56 ± 0.07 %IA/g
  Liver uptake: 0.32 ± 0.01 %IA/g
  Lung uptake: 0.32 ± 0.01 %IA/g
  Muscle uptake: 0.09 ± 0.02 %IA/g
  Pancreas uptake: 0.69 ± 0.03 %IA/g
  Spleen uptake: 0.26 ± 0.03 %IA/g
  Stomach uptake: 0.35 ± 0.01 %IA/g
  Urine + urinary bladder uptake: 4.79 ± 0.12 %IA/g
